Experimental data taken from paper PMC3516549 (PLoS Pathogens, 2012).
Where “and” joins values, the source holds several entries; their conditions need not be identical. Equal values may be shown once.

Tests used:
[1] = target: recombinant trimerized His-tagged soluble HA of A/South Carolina/1/18 (1918 wt) (Influenza A virus A/South …, UniProt Q9WFX3, strain); test: BLI; […]; 1:1 binding model, […]; conditions: both partners purified
[2] = target: recombinant trimerized His-tagged soluble HA, A/South Carolina/1/18 (1918 wt) (Influenza A virus A/South …, UniProt Q9WFX3, strain); test: BLI; conditions: both partners purified

B1: 1I20 Fab (Fab, V domains shown)
VH: EVQLVESGGGVVQPGGSLRLSCIASAFNLGIFGMHWVRQAPGKGLEWVAFIRYDGGKTFYADSVKGRFTISRDNSKNTLYLQMNSLRTEDTALYYCARDATADYYGPGSYPNWLDPWGQGTLVTVSS
VL: DIRLTQSPATLSVSPGERATLSCRASHSVSRNLAWYQQKPGRAPRLLVYDTSSRATGIPARFSGSGSGTEFTLTISSLQSEDFAVYYCQQYNNWPRTFGQGTKVDIK
notes: also called mAb 1I20; source: HEK 293F, transiently co-transfected, purified (HiTrap Protein G)
Kd [1]: 3.22 nM and 3.46 nM
koff [1]: 0.000375 s⁻¹ and 0.000366 s⁻¹
kon [1]: 116000 M⁻¹ s⁻¹ and 106000 M⁻¹ s⁻¹

B2: 1I20 Fab (Fab, V domains shown)
VH: EVQLVESGGGVVQPGGSLRLSCIASAFNLGIFGMHWVRQAPGKGLEWVAFIRYDGGKTFYADSVKGRFTISRDNSKNTLYLQMNSLRTEDTALYYCARDATADYYGPGSYPNWLDPWGQGTLVTVSS
VL: DIRLTQSPATLSVSPGERATLSCRASHSVSRNLAWYQQKPGRAPRLLVYDTSSRATGIPARFSGSGSGTEFTLTISSLQSEDFAVYYCQQYNNWPRTFGQGTKVDIK
notes: also called mAb 1I20
Kd [2]: 3.3 nM
